Laboratory results as given in patent publication US20100226985A1, “VISCOELASTIC AQUEOUS GELS COMPRISING MICROSPHERES” (priority 2006, published 2010).

Test: Lysozyme release from viscoelastic gels into release buffer (BCA protein assay)
Assay type: physicochemical
Settings: after approximately one month; gel solid content 15 wt.-%, DS 4 and 8, lysozyme 1 wt.-% in buffer; release buffer Hepes pH 7
Experimental: Viscoelastic gel compositions with a solid content of 15 wt.-% comprising lysozyme as a model active compound were prepared by dispersing equal amounts of dex-HEMA-L-lactate and dex-HEMA-D-lactate microspheres (DS 4 and 8) in lysozyme-containing (1 wt.-%) aqueus buffer solution. The microparticles were allowed to hydrate overnight at 4° C. Viscoelastic gels were formed which were then tested for lysozyme release using the method described by Van Tomme et al. JCR 2005; 110:67-78. In short, samples of 500 mg of the gels were transferred in a release device and 3 mL release buffer (Hepes, pH 7, 100 mM, 150 mM NaCl, 0.02% NaN3). At certain time intervals, samples were taken and analysed for their protein content using a BCA® protein assay. After approximately one month, about 80% of the entrapped lysozyme was released. No significant difference could be detected between the two batches (i.e. with DS 4 and DS 8) were observed.

With lysozyme the entrapped lysozyme released was “about 80%”.
